One series has as its target T1, E. coli GlpT (Escherichia coli, UniProt P08194).
T1 construct: plasmid pBADmycHisB-glpT, expressed in E. coli MC1061, Ni-Sepharose and size exclusion in DDM, coreconstituted with L. sakei ArcD in vesicles; 54 kDa
T1 sequence (P08194 1-452): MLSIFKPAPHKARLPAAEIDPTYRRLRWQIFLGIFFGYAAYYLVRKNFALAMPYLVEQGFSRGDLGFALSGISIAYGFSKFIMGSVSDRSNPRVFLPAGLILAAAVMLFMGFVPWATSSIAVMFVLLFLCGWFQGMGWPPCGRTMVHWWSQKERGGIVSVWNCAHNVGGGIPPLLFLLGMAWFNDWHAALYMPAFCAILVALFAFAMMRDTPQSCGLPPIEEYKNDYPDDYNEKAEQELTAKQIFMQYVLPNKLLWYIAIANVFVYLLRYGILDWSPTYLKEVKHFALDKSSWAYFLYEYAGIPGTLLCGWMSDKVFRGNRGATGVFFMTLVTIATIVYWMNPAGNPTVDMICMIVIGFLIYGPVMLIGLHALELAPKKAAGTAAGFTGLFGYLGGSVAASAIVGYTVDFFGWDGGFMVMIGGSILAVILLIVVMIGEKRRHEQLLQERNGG
Briefly: GlpT-dependent export from feeder vesicles, read by LC-MS of DOPA formed in utilizer vesicles. Conditions: antiport with external Pi, 50 mM KPi pH 7.0, 30 °C; indirect read-out. The format is biochemical.

Substrate in series [1]: N=C(N)NCCC[C@H](N)C(=O)O
The series is described as follows: cells, lysate or membranes. Conditions: pH 7.0; 20.0 °C.

Substrate in series [2]: N=C(N)NCCC[C@H](N)C(=O)O
The series is described as follows: radiolabelled uptake into L-ornithine-loaded proteoliposomes, Michaelis-Menten fit. The format is biochemical, Latilactobacillus sakei. Conditions: 50 mM KPi pH 7.0, 2 mM DTT, 30 °C, internal L-ornithine 10 mM, external L-arginine 1-100 μM, labelled compound. As for the experimental part:
radiolabelled uptake into L-ornithine-loaded proteoliposomes, Michaelis-Menten fit on L. sakei ArcD | the affinity constant (KM) and turnover number (kcat) were determined for the L. sakei antiporter

Substrate in series [3]: N=C(N)NCCC[C@H](N)C(=O)O
Briefly: cells, lysate or membranes. Also noted: species or system L. lactis JP9000 ΔarcD1ΔarcD2; Radiolabeled L-arginine uptake in L-ornithine-loaded whole cells, filtration and scintillation counting. Conditions: pH 7.0; 20.0 °C. Here is the method: The arcD and arcE genes were cloned into nisin A-based expression vectors and flanked by a 10× His-tag at either the N- or the C-terminus. The constructs were transformed into L. lactis JP9000 ΔarcD1ΔarcD2[24] and the expression was optimized. […] All of these proteins were tested for L-arginine transport activity in vivo (Figure S4). […] By assuming a similar level of expression as the original ArcD2, ArcD from L. sakei would have a 10-fold higher turnover number and was therefore chosen for further in vitro characterization (Table S4). The genes encoding arcD/E were PCR-amplified from the source DNA templates with Phusion high-fidelity DNA polymerase (Thermo Fisher Scientific) and customized primers (Eurofins Genomics, Table S3). Next, fragment exchange (FX)[36] was exploited to clone the genes of interest into pNZ-N(His) or pNZ-C(His) vectors suitable for overexpression in L. lactis strains. According to the procedure, the PCR amplification products were first cloned into a sequencing vector (pINITIAL). To this end, both the insets and the backbone (1:5 molar ratio) were digested with 2.5 U of SapI (New England Biolabs) for 1 h at 37 °C, followed by a heat inactivation step at 60 °C for 20 min. Ligation was carried out by adding 5 U of T4 ligase (New England Biolabs) and incubating for 1 h at RT. […]

`O=P(O)(O)OC[C@H](O)CO` [glycerol 3-phosphate]: the “GlpT-dependent export from feeder vesicles, read by LC-MS of DOPA formed in util” value at E. coli GlpT is reported as “only when the feeder vesicles were equipped with the glycerol 3-phosphate exporter GlpT”.

B1: P. aeruginosa ArcD (Pseudomonas aeruginosa PAO1) (protein)
chain: MSQESSQKLRLGALTALVVGSMIGGGIFSLPQNMAASADVGAVLIGWAITAVGMLTLAFVFQTLANRKPELDGGVYAYAKAGFGDYMGFSSAWGYWISAWLGNVGYFVLLFSTLGYFFPIFGKGDTVAAIVCASVLLWALHFLVLRGIKEAAFINTVTTVAKVVPLFLFILICLFAFKLDIFTADIWGKSNPDLGSVMNQVRNMMLVTVWVFIGIEGASIFSSRAEKRSDVGKATVIGFITVLLLLVLVNVLSMGVMTQPELAKLQNPSMALVLEHVVGHWGAVLISVGLLISLLGALLSWVLLCAEIMFAAAKDHTMPEFLRRENANQVPANALWLTNICVQVFLVVVFFTSGDPDGMDPYTKMLLLATSMILIPYFWSAAYGLLLTLKGETYENDARERSKDLVIAGIAVAYAVWLLYAGGLKYLLLSALLYAPGAILFAKAKHEVGQPIFTGIEKLIFAAVVIGALVAAYGLYDGFLTL
For orientation: Km means the substrate concentration at which the rate is half of its maximum. Take B1: in series [1], the Michaelis-Menten constant (Km) was 7.5 µM.

B2: L. sakei ArcD (Latilactobacillus sakei) (protein)
chain: MTEEKPAKKIGLLALIALVISSSIGSGVFGLTSDLASASAPGPVLIAWVIVGFGILMLALSLNNLLMKEPELEGIFSYAEKGFGPFAGFISGWGYWLSAWLGNVTFATILMSALGYFFPIFKSRQNLPSILVASVLSWSLTYFVNRGVEGAAAINTLVTICKLIPLFVFIIFGIVLFKGHLFTQAFWNNMSSSFVAGDVMSQIKNCMMVMMWVFVGIEGASMLSARAEKKSDAGKATILGLVSLLAIYILASVLPYGYLTQDQLASIKQPAMLYIFEQMVGTWGGYFIGVGLIISILGAWLSWTMLPAETMLLMAKQNLLPAYFGRVNKKKAPTFALVVTAGLIQVFLFTLLFTTKAYNFAYSLCTASIIVCYMLVAAYQIKYSWAHLQEKGNRQQLLIGVLALLFEIAGILMAGVSYLLLCFIAYIPGIYFYGRARKNNGHQHFLSKGEWLITTIIVIGAIIGIWLVVSGKIVI
notes: N-terminal 10x His-tag (plasmid pNZarcD-LS), expressed in L. lactis JP9000 delta-arcD1 delta-arcD2, purified in DDM, reconstituted in DOPE/DOPG/DOPC liposomes; 54 kDa
As usually defined, the kcat is the maximal rate divided by the concentration of active sites. Turning to B2, in series [2], the Km turned out to be 12.2 ± 1.5 µM and the kcat was 5.8 ± 1.2 s⁻¹. For the same molecule, the Km in series [3] stood at 26.8 µM.

For the origin of these results see publication PMC11106768, “Synthetic Vesicles for Sustainable Energy Recycling and Delivery of Building Blocks for Lipid Biosynthesis” (ACS Synthetic Biology, 2024).
